Test results from ChEMBL document CHEMBL1212722, “Designer enzymes for glycosphingolipid synthesis by directed evolution” (Nat Chem Biol, 2009).
Changes are numbered by the printed parent chain. Numbers in names are those of the source.

Columns and labels:
[1] = test system: Rhodococcus sp.; assay: Activity of Rhodococcus sp. M777 Endoglycoceramidase 2 containing wild type sequence E351S
[2] = test system: Rhodococcus sp.; assay: Ratio of Kcat to Km of Activity of Rhodococcus sp. M777 Endoglycoceramidase 2 containing wild type sequence E351S
[3] = Inhibition of Rhodococcus sp. M777 Endoglycoceramidase 2 containing wild type sequence E351S
[4] = substrate: CCCCCCCCCCCCCC[C@@H](O)[C@@H](O)[C@@H](N)CO; assay: Ratio of Kcat to Km of Activity of Rhodococcus sp. M777 Endoglycoceramidase 2 V101M K200R mutant
[5] = substrate: CC(=O)N[C@H]1[C@H](O[C@@H]2[C@H](O[C@]3(C(=O)O)C[C@H](O)[C@@H](NC(C)=O)[C@H]([C@@H](O)[C@@H](O)CO)O3)[C@@H](O)[C@H](O[C@H]3[C@H](O)[C@@H](O)[C@@H](F)O[C@@H]3CO)O[C@@H]2CO)O[C@H](CO)[C@H](O)[C@@H]1O[C@@H]1O[C@H](CO)[C@H](O)[C@H](O)[C@H]1O; assay: (§1) Activity of Rhodococcus sp. M777 Endoglycoceramidase 2 A81E mutant
[6] = substrate: CCCCCCCCCCCCC/C=C/[C@@H](O)[C@@H](N)CO; assay: as §1
[7] = substrate: CC(=O)N[C@H]1[C@H](O[C@@H]2[C@H](O[C@]3(C(=O)O)C[C@H](O)[C@@H](NC(C)=O)[C@H]([C@@H](O)[C@@H](O)CO)O3)[C@@H](O)[C@H](O[C@H]3[C@H](O)[C@@H](O)[C@@H](F)O[C@@H]3CO)O[C@@H]2CO)O[C@H](CO)[C@H](O)[C@@H]1O[C@@H]1O[C@H](CO)[C@H](O)[C@H](O)[C@H]1O; assay: (§2) Ratio of Kcat to Km of Activity of Rhodococcus sp. M777 Endoglycoceramidase 2 A81E mutant
[8] = substrate: CCCCCCCCCCCCC/C=C/[C@@H](O)[C@@H](N)CO; assay: as §2
[9] = substrate: CC(=O)N[C@H]1[C@H](O[C@@H]2[C@H](O[C@]3(C(=O)O)C[C@H](O)[C@@H](NC(C)=O)[C@H]([C@@H](O)[C@@H](O)CO)O3)[C@@H](O)[C@H](O[C@H]3[C@H](O)[C@@H](O)[C@@H](F)O[C@@H]3CO)O[C@@H]2CO)O[C@H](CO)[C@H](O)[C@@H]1O[C@@H]1O[C@H](CO)[C@H](O)[C@H](O)[C@H]1O; assay: (§3) Activity of Rhodococcus sp. M777 Endoglycoceramidase 2 T257I T416A mutant
[10] = substrate: CCCCCCCCCCCCC/C=C/[C@@H](O)[C@@H](N)CO; assay: as §3
[11] = substrate: CC(=O)N[C@H]1[C@H](O[C@@H]2[C@H](O[C@]3(C(=O)O)C[C@H](O)[C@@H](NC(C)=O)[C@H]([C@@H](O)[C@@H](O)CO)O3)[C@@H](O)[C@H](O[C@H]3[C@H](O)[C@@H](O)[C@@H](F)O[C@@H]3CO)O[C@@H]2CO)O[C@H](CO)[C@H](O)[C@@H]1O[C@@H]1O[C@H](CO)[C@H](O)[C@H](O)[C@H]1O; assay: (§4) Ratio of Kcat to Km of Activity of Rhodococcus sp. M777 Endoglycoceramidase 2 T257I T416A mutant
[12] = substrate: CCCCCCCCCCCCC/C=C/[C@@H](O)[C@@H](N)CO; assay: as §4
[13] = substrate: CCCCCCCCCCCCCC[C@@H](O)[C@@H](O)[C@@H](N)CO; assay: Ratio of Kcat to Km of Activity of Rhodococcus sp. M777 Endoglycoceramidase 2 K129N mutant
[14] = substrate: CC(=O)N[C@H]1[C@H](O[C@@H]2[C@H](O[C@]3(C(=O)O)C[C@H](O)[C@@H](NC(C)=O)[C@H]([C@@H](O)[C@@H](O)CO)O3)[C@@H](O)[C@H](O[C@H]3[C@H](O)[C@@H](O)[C@@H](F)O[C@@H]3CO)O[C@@H]2CO)O[C@H](CO)[C@H](O)[C@@H]1O[C@@H]1O[C@H](CO)[C@H](O)[C@H](O)[C@H]1O; assay: (§5) Activity of Rhodococcus sp. M777 Endoglycoceramidase 2 A153T mutant
[15] = substrate: CCCCCCCCCCCCC/C=C/[C@@H](O)[C@@H](N)CO; assay: as §5
[16] = substrate: CC(=O)N[C@H]1[C@H](O[C@@H]2[C@H](O[C@]3(C(=O)O)C[C@H](O)[C@@H](NC(C)=O)[C@H]([C@@H](O)[C@@H](O)CO)O3)[C@@H](O)[C@H](O[C@H]3[C@H](O)[C@@H](O)[C@@H](F)O[C@@H]3CO)O[C@@H]2CO)O[C@H](CO)[C@H](O)[C@@H]1O[C@@H]1O[C@H](CO)[C@H](O)[C@H](O)[C@H]1O; assay: (§6) Ratio of Kcat to Km of Activity of Rhodococcus sp. M777 Endoglycoceramidase 2 A153T mutant
[17] = substrate: CCCCCCCCCCCCC/C=C/[C@@H](O)[C@@H](N)CO; assay: as §6
[18] = substrate: CC(=O)N[C@H]1[C@H](O[C@@H]2[C@H](O[C@]3(C(=O)O)C[C@H](O)[C@@H](NC(C)=O)[C@H]([C@@H](O)[C@@H](O)CO)O3)[C@@H](O)[C@H](O[C@H]3[C@H](O)[C@@H](O)[C@@H](F)O[C@@H]3CO)O[C@@H]2CO)O[C@H](CO)[C@H](O)[C@@H]1O[C@@H]1O[C@H](CO)[C@H](O)[C@H](O)[C@H]1O; assay: (§7) Activity of Rhodococcus sp. M777 Endoglycoceramidase 2 A153T D314Y mutant
[19] = substrate: CCCCCCCCCCCCC/C=C/[C@@H](O)[C@@H](N)CO; assay: as §7
[20] = substrate: CC(=O)N[C@H]1[C@H](O[C@@H]2[C@H](O[C@]3(C(=O)O)C[C@H](O)[C@@H](NC(C)=O)[C@H]([C@@H](O)[C@@H](O)CO)O3)[C@@H](O)[C@H](O[C@H]3[C@H](O)[C@@H](O)[C@@H](F)O[C@@H]3CO)O[C@@H]2CO)O[C@H](CO)[C@H](O)[C@@H]1O[C@@H]1O[C@H](CO)[C@H](O)[C@H](O)[C@H]1O; assay: (§8) Ratio of Kcat to Km of Activity of Rhodococcus sp. M777 Endoglycoceramidase 2 A153T D314Y mutant
[21] = substrate: CCCCCCCCCCCCC/C=C/[C@@H](O)[C@@H](N)CO; assay: as §8
[22] = substrate: CC(=O)N[C@H]1[C@H](O[C@@H]2[C@H](O[C@]3(C(=O)O)C[C@H](O)[C@@H](NC(C)=O)[C@H]([C@@H](O)[C@@H](O)CO)O3)[C@@H](O)[C@H](O[C@H]3[C@H](O)[C@@H](O)[C@@H](F)O[C@@H]3CO)O[C@@H]2CO)O[C@H](CO)[C@H](O)[C@@H]1O[C@@H]1O[C@H](CO)[C@H](O)[C@H](O)[C@H]1O; assay: (§9) Activity of Rhodococcus sp. M777 Endoglycoceramidase 2 R177H mutant
[23] = substrate: CCCCCCCCCCCCC/C=C/[C@@H](O)[C@@H](N)CO; assay: as §9
[24] = substrate: CC(=O)N[C@H]1[C@H](O[C@@H]2[C@H](O[C@]3(C(=O)O)C[C@H](O)[C@@H](NC(C)=O)[C@H]([C@@H](O)[C@@H](O)CO)O3)[C@@H](O)[C@H](O[C@H]3[C@H](O)[C@@H](O)[C@@H](F)O[C@@H]3CO)O[C@@H]2CO)O[C@H](CO)[C@H](O)[C@@H]1O[C@@H]1O[C@H](CO)[C@H](O)[C@H](O)[C@H]1O; assay: (§10) Ratio of Kcat to Km of Activity of Rhodococcus sp. M777 Endoglycoceramidase 2 R177H mutant
[25] = substrate: CCCCCCCCCCCCC/C=C/[C@@H](O)[C@@H](N)CO; assay: as §10

With `CCCCCCCCCCCCC/C=C/[C@@H](O)[C@@H](N)CO` the Km [1] was 410 µM, the kcat [1] was 0.19 s⁻¹ and the kcat/Km [2] was 463 s⁻¹ M⁻¹.

In the case of `CC(=O)N[C@H]1[C@H](O[C@@H]2[C@H](O[C@]3(C(=O)O)C[C@H](O)[C@@H](NC(C)=O)[C@H]([C@@H](O)[C@@H](O)CO)O3)[C@@H](O)[C@H](O[C@H]3[C@H](O)[C@@H](O)[C@@H](F)O[C@@H]3CO)O[C@@H]2CO)O[C@H](CO)[C@H](O)[C@@H]1O[C@@H]1O[C@H](CO)[C@H](O)[C@H](O)[C@H]1O`, the Km [1] is reported as 770 µM, the kcat [1] is reported as 0.21 s⁻¹ and the kcat/Km [2] is reported as 273 s⁻¹ M⁻¹.

`CCCCCCCCCCCCCC[C@@H](O)[C@@H](O)[C@@H](N)CO` [PHYTOSPHINGOSINE] showed a Ki [3] of 850 µM.

B1: Endoglycoceramidase II (Rhodococcus sp), A0ACD6B832 V101M,K200R (protein)
chain: MRRTRLVSLIVTGSLVFGGGVAAAQSSLAASGSGSGSGTALTPSYLKDDDGRSLILRGFNTASSAKSAPDGMPQFTEADLAREYADMGTNFVRFLISWRSMEPAPGVYDQQYLDRVEDRVGWYAERGYKVMLDMHQDVYSGAITPEGNSGNGAGAIGNGAPAWATYMDGLPVEPQPRWELYYIQPGVMRAFDNFWNTTGRHPELVEHYAKAWRAVADRFADNDAVVAYDLMNEPFGGSLQGPAFEAGPLAAMYQRTTDAIRQVDQDTWVCVAPQAIGVNQGLPSGLTKIDDPRAGQQRIAYCPHLYPLPLDIGDGHEGLARTLTDVTIDAWRANTAHTARVLGDVPIILGEFGLDTTLPGARDYIERVYGTAREMGAGVSYWSSDPGPWGPYLPDGTQTLLVDTLNKPYPRAVAGTPTEWSSTSDRLQLTIEPDAAITAPTEIYLPEAGFPGDVHVEGADVVGWDRQSRLLTVRTPADSGNVTVTVTPAA
B1 showed a kcat/Km [4] of 3.1 s⁻¹ M⁻¹.

B2: Endoglycoceramidase II (Rhodococcus sp), A0ACD6B832 A81E (protein)
chain: B1 chain with A81E, M101V, R200K
For B2, the Km [5] was 970 µM, the kcat [5] was 0.12 s⁻¹ and the Km [6] was 200 µM. It also gave a kcat [6] of 0.12 s⁻¹, a kcat/Km [7] of 123 s⁻¹ M⁻¹ and a kcat/Km [8] of 600 s⁻¹ M⁻¹.

B3: Endoglycoceramidase II (Rhodococcus sp), A0ACD6B832 T257I,T416A (protein)
chain: B1 chain with M101V, R200K, T257I, T416A
For B3, the Km [9] was 370 µM, the kcat [9] was 0.11 s⁻¹ and the Km [10] was 870 µM. It also gave a kcat [10] of 0.18 s⁻¹, a kcat/Km [11] of 297 s⁻¹ M⁻¹ and a kcat/Km [12] of 206 s⁻¹ M⁻¹.

B4: Endoglycoceramidase II (Rhodococcus sp), A0ACD6B832 K129N (protein)
chain: B1 chain with M101V, K129N, R200K
Molecule B4 has a kcat/Km [13] of 3.1 s⁻¹ M⁻¹.

B5: Endoglycoceramidase II (Rhodococcus sp), A0ACD6B832 A153T (protein)
chain: B1 chain with M101V, A153T, R200K
With B5 the Km [14] was 420 µM, the kcat [14] was 0.17 s⁻¹ and the Km [15] was 460 µM. It also gave a kcat [15] of 0.2 s⁻¹, a kcat/Km [16] of 405 s⁻¹ M⁻¹ and a kcat/Km [17] of 435 s⁻¹ M⁻¹.

B6: Endoglycoceramidase II (Rhodococcus sp), A0ACD6B832 A153T,D314Y (protein)
chain: B1 chain with M101V, A153T, R200K, D314Y
For B6, the Km [18] was 270 µM, the kcat [18] was 0.3 s⁻¹ and the Km [19] was 1600 µM. For the same molecule, the kcat [19] was 0.64 s⁻¹, the kcat/Km [20] was 1110 s⁻¹ M⁻¹ and the kcat/Km [21] was 407 s⁻¹ M⁻¹.

B7: Endoglycoceramidase II (Rhodococcus sp), A0ACD6B832 R177H (protein)
chain: B1 chain with M101V, R177H, R200K
For B7, the Km [22] was 320 µM, the kcat [22] was 0.06 s⁻¹ and the Km [23] was 170 µM. For the same molecule, the kcat [23] was 0.06 s⁻¹, the kcat/Km [24] was 188 s⁻¹ M⁻¹ and the kcat/Km [25] was 353 s⁻¹ M⁻¹.
